The chains are these.
B1: DNAJB8 (on the ProtoArray) (natural protein, UniProt Q8NHS0 1-232, looked up)
chain: MANYYEVLGVQASASPEDIKKAYRKLALRWHPDKNPDNKEEAEKKFKLVSEAYEVLSDSKKRSLYDRAGCDSWRAGGGASTPYHSPFDTGYTFRNPEDIFREFFGGLDPFSFEFWDSPFNSDRGGRGHGLRGAFSAGFGEFPAFMEAFSSFNMLGCSGGSHTTFSSTSFGGSSSGSSGFKSVMSSTEMINGHKVTTKRIVENGQERVEVEEDGQLKSVTVNGKEQLKWMDSK
notes: DNAJB8, protein spotted on the ProtoArray; source: bought: spotted on ProtoArray protein microarray (Invitrogen / ThermoFisher)
B2: DNAJB7 (on the ProtoArray) (natural protein, UniProt Q7Z6W7 1-309, looked up)
chain: MVDYYEVLGLQRYASPEDIKKAYHKVALKWHPDKNPENKEEAERKFKEVAEAYEVLSNDEKRDIYDKYGTEGLNGGGSHFDDECEYGFTFHKPDDVFKEIFHERDPFSFHFFEDSLEDLLNRPGSSYGNRNRDAGYFFSTASEYPIFEKFSSYDTGYTSQGSLGHEGLTSFSSLAFDNSGMDNYISVTTSDKIVNGRNINTKKIIESDQEREAEDNGELTFFLVNSVANEEGFAKECSWRTQSFNNYSPNSHSSKHVSQYTFVDNDEGGISWVTSNRDPPIFSAGVKEGGKRKKKKRKEVQKKSTKRNC
notes: DNAJB7, protein spotted on the ProtoArray; source: bought: spotted on ProtoArray protein microarray (Invitrogen / ThermoFisher)
B3: Na+/H+ Exchange Regulator Factor 1 (on the ProtoArray) (natural protein, UniProt O14745 1-358, looked up)
chain: MSADAAAGAPLPRLCCLEKGPNGYGFHLHGEKGKLGQYIRLVEPGSPAEKAGLLAGDRLVEVNGENVEKETHQQVVSRIRAALNAVRLLVVDPETDEQLQKLGVQVREELLRAQEAPGQAEPPAAAEVQGAGNENEPREADKSHPEQRELRPRLCTMKKGPSGYGFNLHSDKSKPGQFIRSVDPDSPAEASGLRAQDRIVEVNGVCMEGKQHGDVVSAIRAGGDETKLLVVDRETDEFFKKCRVIPSQEHLNGPLPVPFTNGEIQKENSREALAEAALESPRPALVRSASSDTSEELNSQDSPPKQDSTAPSSTSSSDPILDFNISLAMAKERAHQKRSSKRAPQMDWSKKNELFSNL
notes: NHERF1 (EBP50), protein spotted on the ProtoArray; also called NHERF1; EBP50; source: bought: spotted on ProtoArray protein microarray (Invitrogen / ThermoFisher)

Three molecules from paper PMC6614449, “Targeting DNAJB9, a novel ER luminal co-chaperone, to rescue ΔF508-CFTR” (Scientific Reports, 2019) can be followed below.

For this test, the target named is T1, full length FLAG-CFTR (WT-CFTR) (UniProt P13569 1-1480).
T1 construct: Cystic Fibrosis transmembrane-conductance regulator (CFTR), wild type, 1,480 amino acids; Surface CFTR was probed with anti-FLAG on fixed cells, so the FLAG tag may lie in an extracellular loop; also called FLAG-WT-CFTR; Cystic Fibrosis transmembrane-conductance regulator; source: HEK293 cells stably expressing it; purified on anti-FLAG resin (ProtoArray) or in whole-cell lysate (co-IP)
T1 sequence (P13569 whole entry): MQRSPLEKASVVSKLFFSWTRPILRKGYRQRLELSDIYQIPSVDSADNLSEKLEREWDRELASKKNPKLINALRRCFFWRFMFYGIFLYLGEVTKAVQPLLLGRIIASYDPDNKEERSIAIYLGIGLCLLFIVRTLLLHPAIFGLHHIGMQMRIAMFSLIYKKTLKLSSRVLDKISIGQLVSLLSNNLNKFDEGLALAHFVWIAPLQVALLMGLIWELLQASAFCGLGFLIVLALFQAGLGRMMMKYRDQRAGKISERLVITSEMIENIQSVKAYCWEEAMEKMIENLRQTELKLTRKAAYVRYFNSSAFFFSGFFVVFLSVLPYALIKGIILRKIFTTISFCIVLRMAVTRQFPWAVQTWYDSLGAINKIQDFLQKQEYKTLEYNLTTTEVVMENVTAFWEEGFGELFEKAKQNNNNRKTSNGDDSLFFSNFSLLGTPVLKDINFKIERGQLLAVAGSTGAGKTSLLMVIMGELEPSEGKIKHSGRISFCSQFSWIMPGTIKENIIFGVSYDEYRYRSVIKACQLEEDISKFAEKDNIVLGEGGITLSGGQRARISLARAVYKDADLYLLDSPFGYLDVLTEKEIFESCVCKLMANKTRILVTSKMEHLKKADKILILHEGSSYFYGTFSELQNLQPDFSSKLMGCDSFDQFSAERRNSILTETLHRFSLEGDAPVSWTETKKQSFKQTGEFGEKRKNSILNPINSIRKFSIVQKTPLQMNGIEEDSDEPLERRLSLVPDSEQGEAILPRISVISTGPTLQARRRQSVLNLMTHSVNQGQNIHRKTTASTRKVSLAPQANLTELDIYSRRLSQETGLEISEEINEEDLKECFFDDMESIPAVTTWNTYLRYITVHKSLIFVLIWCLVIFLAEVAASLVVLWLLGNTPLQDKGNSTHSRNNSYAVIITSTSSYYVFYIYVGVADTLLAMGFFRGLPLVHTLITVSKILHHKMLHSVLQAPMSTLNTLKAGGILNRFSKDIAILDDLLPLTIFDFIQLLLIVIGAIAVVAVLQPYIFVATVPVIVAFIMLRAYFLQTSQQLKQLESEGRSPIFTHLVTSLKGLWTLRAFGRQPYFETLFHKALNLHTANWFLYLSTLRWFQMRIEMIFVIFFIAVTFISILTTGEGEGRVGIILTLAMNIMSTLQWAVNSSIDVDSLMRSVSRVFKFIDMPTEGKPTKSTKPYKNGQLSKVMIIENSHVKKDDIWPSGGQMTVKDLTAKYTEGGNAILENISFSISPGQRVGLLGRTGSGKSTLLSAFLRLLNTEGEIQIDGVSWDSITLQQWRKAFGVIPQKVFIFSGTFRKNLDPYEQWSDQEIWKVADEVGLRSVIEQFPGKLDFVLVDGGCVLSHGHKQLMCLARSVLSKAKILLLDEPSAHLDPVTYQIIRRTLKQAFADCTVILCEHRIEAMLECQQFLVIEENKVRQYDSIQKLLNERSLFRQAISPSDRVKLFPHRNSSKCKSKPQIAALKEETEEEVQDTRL
In words: peptide or protein array; ProtoArray protein microarray (Invitrogen / ThermoFisher) probed with purified full length FLAG-CFTR in solution; bound CFTR detected with mouse anti-FLAG monoclonal antibody and Alexa-488 secondary antibody, fluorescence scanner; mean of duplicate. Particulars: both partners purified.
Turning to B1, the binding result is given as “binds”. Turning to B2, the binding result was “binds”.

Turning to B3, the binding result was “binds”.
